Reference: the supplement of paper PMC7125110
± gives the standard error. For part of these data: Fewer inactive variants are shown than the library holds.

B1: glmS ribozyme (parent)
chain: AUAAAAGCGCCAGAACUACAGAAAUGUAGUUGACGAGGAGGAGGUUUAUCGAAUUUUCGGCGGAUGCCUCCAAA

Experiments:
Details in all cases: with glucosamine-6-phosphate
[1] = variants of: B1; test: kcat; higher = faster cleavage; RNA array
Method in brief: (§1)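 A hybridised Cy3 probe tracked barcoded ribozyme variants, transcribed in situ by E. coli RNA polymerase on sequenced MiSeq chips, at 37 °C. The variants received 40 μM to 10 mM glucosamine-6-phosphate in HEPES/KCl/Mg(OAc)2 buffer. kobs came from decay fits and kcat and KM from weighted Michaelis–Menten fits.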

[2] = variants of: B1; test: self-cleavage kobs at 10000 uM GlcN6P; higher = faster cleavage; RNA array
Method in brief: as §1

[3] = variants of: B1; test: KM; higher = weaker cofactor use; RNA array
Method in brief: as §1

[4] = variants of: B1; test: self-cleavage kobs at 160 uM GlcN6P; higher = faster cleavage; RNA array
Method in brief: as §1

[5] = variants of: B1; test: self-cleavage kobs at 640 uM GlcN6P; higher = faster cleavage; RNA array
Method in brief: as §1

[6] = variants of: B1; test: self-cleavage kobs at 2500 uM GlcN6P; higher = faster cleavage; RNA array
Method in brief: as §1

[7] = variants of: B1; test: self-cleavage kobs at 40 uM GlcN6P; higher = faster cleavage; RNA array
Method in brief: as §1

AUAAACGCGCCAGAACUACAGAAAUGUAGUUGACGAGGAGGAGGUUUAUCGAAUUAUCGGCGGAUGCCUCCAAA
kcat [1]: 4.08e-05 ± 9.7e-06 s⁻¹ | self-cleavage kobs at 10000 uM GlcN6P [2]: 3.34e-05 ± 7.8e-06 s⁻¹

AUAAACGCGCCAGAACUACAGAAAUGUAGUUGACGAGGAGGAGGUUUAUCGAAUUGUCGGCGGAUGCCUCCAAA
kcat [1]: 4.98e-05 ± 4.1e-06 s⁻¹ | KM [3]: 4.2 ± 0.92 mM | self-cleavage kobs at 160 uM GlcN6P [4]: < 1e-05 s⁻¹ | self-cleavage kobs at 10000 uM GlcN6P [2]: 3.5e-05 ± 1.3e-05 s⁻¹

AUAAAGGCGCCAGGACUACAGAAAUGUAGUUGACGAGGAGGAGGUUUAUCGAAUUUUCGGCGGAUGCCUCCAAA
kcat [1]: 0.00132 ± 0.00026 s⁻¹ | KM [3]: 3.74 ± 1.2 mM | self-cleavage kobs at 160 uM GlcN6P [4]: 7.41e-05 ± 1.7e-05 s⁻¹ | self-cleavage kobs at 640 uM GlcN6P [5]: 0.000162 ± 4.1e-05 s⁻¹ | self-cleavage kobs at 2500 uM GlcN6P [6]: 0.000514 ± 7.9e-05 s⁻¹ | self-cleavage kobs at 10000 uM GlcN6P [2]: 0.000992 ± 0.00016 s⁻¹

AUAAAGGCGCCAGAACUACAGAAAUGUAGUUGACGAGGGGGAGGUUUAUCGAAUUUUCGGCGGAUGCCUCCAAA
kcat [1]: 0.00207 ± 0.0008 s⁻¹ | self-cleavage kobs at 160 uM GlcN6P [4]: 6.4e-05 ± 1.4e-05 s⁻¹ | self-cleavage kobs at 640 uM GlcN6P [5]: 0.000144 ± 2.7e-05 s⁻¹ | self-cleavage kobs at 2500 uM GlcN6P [6]: 0.000791 ± 0.0001 s⁻¹ | self-cleavage kobs at 10000 uM GlcN6P [2]: 0.00121 ± 0.00015 s⁻¹

AUAAACGCGCCAGAACUACAGAAAUGUAGUUGACGAGGAGGAGGUUUAUCGAAUUUUCGGCGGAUGCCCCCAAA
kcat [1]: 3.1e-05 ± 9.9e-06 s⁻¹ | self-cleavage kobs at 40 uM GlcN6P [7]: < 1e-05 s⁻¹ | self-cleavage kobs at 2500 uM GlcN6P [6]: 4.93e-05 ± 2e-05 s⁻¹

AUAAAGGCGCCAGAGCUACAGAAAUGUAGUUGACGAGGAGGAGGUUUAUCGAAUUUUCGGCGGAUGCCUCCAAA
kcat [1]: 0.000647 ± 5.3e-05 s⁻¹ | KM [3]: 2.54 ± 0.37 mM | self-cleavage kobs at 160 uM GlcN6P [4]: 3.49e-05 ± 1.1e-05 s⁻¹ | self-cleavage kobs at 640 uM GlcN6P [5]: 0.000131 ± 1.7e-05 s⁻¹ | self-cleavage kobs at 2500 uM GlcN6P [6]: 0.000324 ± 4.3e-05 s⁻¹ | self-cleavage kobs at 10000 uM GlcN6P [2]: 0.000514 ± 5.4e-05 s⁻¹

AUAAAGGCGCCCGAACUACAGAAAUGUAGUUGACGAGGAGGAGGUUUAUCGAAUUUUCGGCGGAUGCCUCCAAA
kcat [1]: 0.000313 ± 8.2e-05 s⁻¹ | self-cleavage kobs at 2500 uM GlcN6P [6]: 6.08e-05 ± 3e-05 s⁻¹ | self-cleavage kobs at 10000 uM GlcN6P [2]: 0.000159 ± 1.7e-05 s⁻¹

AUAAACGCGCCAGAACUACAGAAAUGUAGUGGACGAGGAGGAGGUUUAUCGAAUUUUCGGCGGAUGCCUCCAAA
kcat [1]: 2.39e-05 ± 9.7e-07 s⁻¹ | KM [3]: 3.73 ± 0.51 mM | self-cleavage kobs at 10000 uM GlcN6P [2]: 1.74e-05 ± 5.6e-06 s⁻¹

AUAAAGGCGCCAGAACUACAGAAAUGUAGUUGACGAGGAGGGGGUUUAUCGAAUUUUCGGCGGAUGCCUCCAAA
kcat [1]: 0.000724 ± 0.00013 s⁻¹ | KM [3]: 2.73 ± 0.96 mM | self-cleavage kobs at 160 uM GlcN6P [4]: 2.26e-05 ± 1.1e-05 s⁻¹ | self-cleavage kobs at 640 uM GlcN6P [5]: 0.000175 ± 2.3e-05 s⁻¹ | self-cleavage kobs at 2500 uM GlcN6P [6]: 0.000329 ± 4.6e-05 s⁻¹ | self-cleavage kobs at 10000 uM GlcN6P [2]: 0.000569 ± 5.1e-05 s⁻¹

AUAAACGCGCCAGAACUACAGAAAUGUAGUUGACGAGGAGGAGGUUUAUCGAAGUUUCGGCGGAUGCCUCCAAA
kcat [1]: 0.000119 ± 4.3e-06 s⁻¹ | KM [3]: 4.98 ± 0.41 mM | self-cleavage kobs at 2500 uM GlcN6P [6]: 3.94e-05 ± 9.9e-06 s⁻¹ | self-cleavage kobs at 10000 uM GlcN6P [2]: 7.93e-05 ± 1.1e-05 s⁻¹
